Laboratory results reported in publication PMC12325586, “OFD1 inhibition induces BRCAness to create a therapeutic vulnerability to PARP inhibition in pancreatic cancer” (Nature Communications, 2025).
Each block holds one binder with its values, some of them ahead of it.

Tests used:
[1] = biological target: T1, OFD1-Flag recombinant protein (UniProt O75665 1-1012); assay: pull-down; in vitro peptide competition: 5 μg purified OFD1-Flag and E2F4-Strep II-HA with HA agarose; candidate peptides at 200 μM, validation at 0, 12.5, 25, 50, 100 and 200 μM; overnight at 4 °C; details: both partners purified
T1 construct: OFD1; also called recombinant OFD1; source: HEK293S, purified (Flag agarose, eluted with Flag peptide)
T1 sequence (looked up): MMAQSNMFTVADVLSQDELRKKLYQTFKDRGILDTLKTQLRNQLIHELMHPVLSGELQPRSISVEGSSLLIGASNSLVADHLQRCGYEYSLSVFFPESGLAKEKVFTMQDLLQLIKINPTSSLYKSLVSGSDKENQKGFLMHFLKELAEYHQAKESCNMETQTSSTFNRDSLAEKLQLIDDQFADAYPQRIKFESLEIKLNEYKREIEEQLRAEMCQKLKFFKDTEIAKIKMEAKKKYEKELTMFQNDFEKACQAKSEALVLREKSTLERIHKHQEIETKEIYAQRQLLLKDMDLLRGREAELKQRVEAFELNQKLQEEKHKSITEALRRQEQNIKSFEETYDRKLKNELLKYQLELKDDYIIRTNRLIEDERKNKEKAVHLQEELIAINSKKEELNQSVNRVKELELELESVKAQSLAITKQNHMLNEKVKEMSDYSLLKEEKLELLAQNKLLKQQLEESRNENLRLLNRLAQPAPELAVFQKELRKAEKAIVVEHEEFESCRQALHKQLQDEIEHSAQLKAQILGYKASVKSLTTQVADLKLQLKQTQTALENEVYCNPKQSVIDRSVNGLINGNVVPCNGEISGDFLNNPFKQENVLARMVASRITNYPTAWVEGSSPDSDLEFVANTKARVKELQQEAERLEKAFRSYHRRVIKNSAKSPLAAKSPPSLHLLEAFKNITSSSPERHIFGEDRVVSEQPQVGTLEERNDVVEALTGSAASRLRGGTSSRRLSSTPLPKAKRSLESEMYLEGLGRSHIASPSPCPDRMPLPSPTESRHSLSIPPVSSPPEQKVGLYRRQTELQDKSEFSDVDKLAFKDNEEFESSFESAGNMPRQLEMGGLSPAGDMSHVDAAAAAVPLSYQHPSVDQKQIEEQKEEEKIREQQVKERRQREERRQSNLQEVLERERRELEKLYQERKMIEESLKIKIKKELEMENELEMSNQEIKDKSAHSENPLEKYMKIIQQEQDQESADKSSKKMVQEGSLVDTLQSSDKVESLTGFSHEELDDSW

[2] = biological target: T1, OFD1-Flag recombinant protein; assay: pull-down; 20 μg purified OFD1-Flag and E2F4-Strep II-HA with Flag agarose or HA agarose in TAP lysis buffer, 3-4 h at 4 °C; details: both partners purified

- binding result [1]: binds
B1: E2F4 peptide spanning residues 283-302 (peptide)
peptide: ELSSLPLGPTTLDTRPLQSS
notes: the TAT-conjugated form was used on cells only; source: synthetic peptide

- binding result [2]: binds
B2: E2F4-Strep II-HA recombinant protein (natural protein)
chain: not shown
notes: E2F4; also called recombinant E2F4; source: HEK293S, purified (StrepTactin XT beads, then HA agarose, eluted with HA peptide)
